Experimental data reported in PMC5319395.

Target: T1, S. pombe Uba1 (S. pombe) (UniProt O94609)
T1 sequence: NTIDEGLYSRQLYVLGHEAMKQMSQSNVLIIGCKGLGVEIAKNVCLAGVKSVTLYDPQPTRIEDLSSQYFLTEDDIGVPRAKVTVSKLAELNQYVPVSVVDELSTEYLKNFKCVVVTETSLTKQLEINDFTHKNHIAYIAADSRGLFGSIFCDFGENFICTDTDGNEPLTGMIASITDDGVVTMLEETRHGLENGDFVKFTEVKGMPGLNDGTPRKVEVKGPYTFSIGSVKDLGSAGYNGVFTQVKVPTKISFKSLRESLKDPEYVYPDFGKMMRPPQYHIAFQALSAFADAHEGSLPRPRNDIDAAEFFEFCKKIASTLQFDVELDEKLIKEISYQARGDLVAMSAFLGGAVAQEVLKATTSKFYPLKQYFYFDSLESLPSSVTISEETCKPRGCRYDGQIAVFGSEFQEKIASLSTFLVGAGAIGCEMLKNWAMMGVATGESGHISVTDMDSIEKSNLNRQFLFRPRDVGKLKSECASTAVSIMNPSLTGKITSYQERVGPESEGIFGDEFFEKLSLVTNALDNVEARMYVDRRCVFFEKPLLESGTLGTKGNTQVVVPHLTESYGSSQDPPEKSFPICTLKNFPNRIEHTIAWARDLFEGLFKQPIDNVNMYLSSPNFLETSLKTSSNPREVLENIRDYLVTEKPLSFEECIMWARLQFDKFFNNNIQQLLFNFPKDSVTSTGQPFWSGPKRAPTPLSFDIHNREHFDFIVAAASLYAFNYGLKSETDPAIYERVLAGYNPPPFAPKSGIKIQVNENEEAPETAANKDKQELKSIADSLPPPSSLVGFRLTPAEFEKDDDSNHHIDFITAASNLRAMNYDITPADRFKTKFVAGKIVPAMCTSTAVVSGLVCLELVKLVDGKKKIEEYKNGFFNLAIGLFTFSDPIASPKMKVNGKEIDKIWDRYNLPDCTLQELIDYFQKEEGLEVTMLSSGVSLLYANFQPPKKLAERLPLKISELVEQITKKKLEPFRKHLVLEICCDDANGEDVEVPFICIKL

B1: Ubc15 L67F (enzyme)
chain: MPSSASEQLLRKQLKEIQKNPPQGFSVGLVDDKSIFEWEVMIIGPEDTLYEGGFFHATLSFPQDYPFMPPKMKFTTEIWHPNVHPNGEVCISILHPPGDDKYGYEDAGERWLPVHSPETILISVISMLSSPNDESPANIDAAKEFRENPQEFKKRVRRLVRRSIEMI
fold decrease in E1-E2 Ub thioester transfer assay (Figure 2E): 2 fold
